Laboratory results published in publication PMC11677393 (International Journal of Molecular Sciences, 2024).

B1: GLI1(234–388) (domain or fragment, human, UniProt P08151 234-388, looked up)
chain: ETDCRWDGCSQEFDSQEQLVHHINSEHIHGERKEFVCHWGGCSRELRPFKAQYMLVVHMRRHTGEKPHKCTFEGCRKSYSRLENLKTHLRSHTGEKPYMCEHEGCSKAFSNASDRAKHQNRTHSNEKPYVCKLPGCTKRYTDPSSLRKHVKTVHG
notes: a few residues of the TEV site and linker may remain at the N-terminus (surmised); PDB 2GLI is the cited structure of GLI1 Zif1-5 with DNA; also called Zif truncation with 5 Zif motifs; Zif1-5; not shown: His6, N-terminal, cleaved; SUMO (yeast SMT3), N-terminal, cleaved
B2: GLI1(234–358) (domain or fragment)
chain: not shown
notes: a few residues of the TEV site and linker may remain at the N-terminus (surmised); also called Zif truncation with 4 Zif motifs; not shown: His6, N-terminal, cleaved; SUMO (yeast SMT3), N-terminal, cleaved
B3: GLI1(234–326) (domain or fragment, human, UniProt P08151 234-326, looked up)
chain: ETDCRWDGCSQEFDSQEQLVHHINSEHIHGERKEFVCHWGGCSRELRPFKAQYMLVVHMRRHTGEKPHKCTFEGCRKSYSRLENLKTHLRSHT
notes: a few residues of the TEV site and linker may remain at the N-terminus (surmised); also called Zif truncation with 3 Zif motifs; not shown: His6, N-terminal, cleaved; SUMO (yeast SMT3), N-terminal, cleaved
B4: Human GLI1 truncation containing zinc finger motif 1 and 2 (residue 234–302) (domain or fragment)
chain: ETDCRWDGCSQEFDSQEQLVHHINSEHIHGERKEFVCHWGGCSRELRPFKAQYMLVVHMRRHTGEKPHK
notes: TEV protease was used to remove His-SUMO; Two zinc ions per chain; also called GLI1 Zif1-2; source: E. coli Rosetta pLysS, purified (Ni-NTA, TEV cleavage, glutathione column, HiTrap Q HP, Superdex 75); not shown: His6, N-terminal, cleaved; SUMO (yeast SMT3), N-terminal, cleaved

Tests used:
[1] = target: the molecule itself; test: SEC; Superdex 75 during purification; 20 mM HEPES pH 7.6, 500 mM NaCl, 0.1 mM TCEP; elution compared with standard proteins
[2] = target: the molecule itself; test: crystal structure; apo GLI1(234–302), no DNA; sitting drop, 29–32% PEG3350, 0.1 M Bis-Tris pH 6.5; two molecules in the asymmetric unit, space group P65, 2.05 Å

Row | Protein | stoichiometry N [1] | binding result [2]
1 | B1 | 2 | 
2 | B2 | 2 | 
3 | B3 | 2 | 
4 | B4 |  | binds
